The supplement of paper PMC9170038

Tested on: MS2 coat protein
Assay: apparent KD of MS2 coat protein; higher = weaker reporter binding
Settings: Eterna round: R107
How it was run: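 The buffer was 100 mM Tris-HCl pH 7.5 with 80 mM KCl and 4 mM MgCl2, used without or with constant ligand. In it, RNA switches transcribed on-chip from Illumina sequencing clusters were titrated with SNAP-549-labelled MS2 coat protein in twofold steps from 0.7 or 1.5 nM to 3 µM. Apparent KD for each design is the median of its normalised cluster binding-curve fits.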

[1] = input ligand: theophylline 20 uM
[2] = input ligand: theophylline 2 mM
[3] = input ligand: tryptophan 2.4 mM

In the case of “ACAUGAGGAUCACCCAUGUUUGAUGUUCCUCGAGGACCGGUACGGCCGCCACUCGAACGAGUGGCGCGCGCGCGCGCGCGCGCGC [aQa]”, the “apparent KD of MS2 coat protein” value (input ligand: arginine 13.2 mM) is reported as 10.9 nM, the “apparent KD of MS2 coat protein” value (input ligand: none) is reported as 12.5 nM and the “apparent KD of MS2 coat protein” value [1] is reported as 22.9 nM. The “apparent KD of MS2 coat protein” value [2] was 14.5 nM and the “apparent KD of MS2 coat protein” value [3] was 13 nM.

With “AACAUGAGGAUCACCCAUGUGUCCUCGAAACGAGGACCGGUACGGCCGCCACUCGAAGCAUGUUGACGAAAAGUCAGCAUGCAAA [Mat - Exclusion - Trytophan A - D14]” the “apparent KD of MS2 coat protein” value (input ligand: arginine 13.2 mM) was 96.4 nM, the “apparent KD of MS2 coat protein” value [1] was 292 nM and the “apparent KD of MS2 coat protein” value [2] was 353 nM.

With “GACAUGAGGAUCGAUACCAGCGACAUGAGGAUCACAUGAGGAUCACCCAUGUGUAGUAUACGCCCUUGGCAGCGAACAUGAGGAU [Same State Theophylline B 3]” the “apparent KD of MS2 coat protein” value (input ligand: arginine 13.2 mM) was 74.3 nM, the “apparent KD of MS2 coat protein” value (input ligand: none) was 51.4 nM and the “apparent KD of MS2 coat protein” value [1] was 71.2 nM. The “apparent KD of MS2 coat protein” value [2] was 39.2 nM and the “apparent KD of MS2 coat protein” value [3] was 32.3 nM.

For “ACCUGUACGAAAAGUGCAGGACACGGAAUACGAGGACCGGUACGGCCGCCACUCGGAAUAACCUGAGGAUCACCCUGGUACCGUG [TrypAS 10 #AlternativeMS2 #Zipper #StaticStem]”, the “apparent KD of MS2 coat protein” value (input ligand: arginine 13.2 mM) was 25.8 nM, the “apparent KD of MS2 coat protein” value (input ligand: none) was 18.8 nM and the “apparent KD of MS2 coat protein” value [1] was 27.5 nM. The “apparent KD of MS2 coat protein” value [2] was 26.7 nM and the “apparent KD of MS2 coat protein” value [3] was 19.2 nM.

With “UUAACGAGCUGAAGGAGCGCUCCUCAACAACAUGAGGAUCACCCAUGUACACAUAAUAGGGAGCAGGUAGGUCGCAGCAGGAUGG [ss-argB-?]” the “apparent KD of MS2 coat protein” value (input ligand: arginine 13.2 mM) was 17.4 nM, the “apparent KD of MS2 coat protein” value (input ligand: none) was 15.3 nM and the “apparent KD of MS2 coat protein” value [1] was 23.4 nM. The “apparent KD of MS2 coat protein” value [2] was 17 nM and the “apparent KD of MS2 coat protein” value [3] was 15 nM.

With “ACGAACGAUAGUGAUACCAGACGAACAUGAGGAUCACCCAUGUUAUACACAUGGUUUAUUGUCCCUUGGCAGCACUUUAAGUUCG [JR_ExcTheophyB_Sub006]” the “apparent KD of MS2 coat protein” value (input ligand: arginine 13.2 mM) was 80.1 nM, the “apparent KD of MS2 coat protein” value [1] was 139 nM and the “apparent KD of MS2 coat protein” value [3] was 146 nM.

In the case of “ACAUGAGGAUCACCCAUGUAGCCUAGGGAAGGAGCGGCAUAAAAGCCAGGUAGGUCGCCCGCAUGAGGAUCACCCAUGUCAAGGA [Same State Arginine A GF7]”, the “apparent KD of MS2 coat protein” value (input ligand: arginine 13.2 mM) is reported as 42.8 nM, the “apparent KD of MS2 coat protein” value (input ligand: none) is reported as 70 nM and the “apparent KD of MS2 coat protein” value [1] is reported as 81.7 nM. The “apparent KD of MS2 coat protein” value [2] was 74.9 nM and the “apparent KD of MS2 coat protein” value [3] was 61 nM.

In the case of “ACAUGAGGGCGAAGGAGCGCGAACAUGAGGAUCACCCAUGUGUAUGUAUGUUGUCAUGUAUCGCAGGUAGGUCGCGCUGUUACAU [Exclusion Arginine B]”, the “apparent KD of MS2 coat protein” value (input ligand: arginine 13.2 mM) is reported as 90.1 nM, the “apparent KD of MS2 coat protein” value (input ligand: none) is reported as 233 nM and the “apparent KD of MS2 coat protein” value [1] is reported as 245 nM. For the same sequence, the “apparent KD of MS2 coat protein” value [2] was 341 nM and the “apparent KD of MS2 coat protein” value [3] was 307 nM.

With “GGACAUGCAGGAAGGAGCGACACAGCAGAAACUGCAAAUCCUCCACACGAGGAUCACCCGUGUCAGGUAGGUCGCCUGCAUGUCG [ArgXB 14 #Zipper #MS2Left #StaticStem #Blueprint]” the “apparent KD of MS2 coat protein” value (input ligand: arginine 13.2 mM) was 76.7 nM, the “apparent KD of MS2 coat protein” value (input ligand: none) was 89.5 nM and the “apparent KD of MS2 coat protein” value [1] was 99.1 nM. For the same sequence, the “apparent KD of MS2 coat protein” value [2] was 126 nM and the “apparent KD of MS2 coat protein” value [3] was 80.2 nM.

For “CAGAGACAUGAGGAUCACCCAUGUUGAGAUACCAGCUUGGUAUCGAGCCCUUGGCAGCUCGCCCAUCGUCUAUAUCAGCCUGAGC [theeternabot_sameState_MS2_Theo_A_40]”, the “apparent KD of MS2 coat protein” value (input ligand: arginine 13.2 mM) was 17 nM, the “apparent KD of MS2 coat protein” value [1] was 18.9 nM and the “apparent KD of MS2 coat protein” value [3] was 16.8 nM.

With “AUUACAUGGAUUACAACUAAAUCAACUGAAGGAGCGUGAAGGAUCACAGGUAGGUCGCAGUACAUGAGGAUCACCCAUGUUAUAA [JR_Nu_SSArginiA_Sub021]” the “apparent KD of MS2 coat protein” value (input ligand: arginine 13.2 mM) was 34.4 nM, the “apparent KD of MS2 coat protein” value (input ligand: none) was 34 nM and the “apparent KD of MS2 coat protein” value [1] was 48.5 nM. The “apparent KD of MS2 coat protein” value [2] was 45.9 nM and the “apparent KD of MS2 coat protein” value [3] was 39.6 nM.

“UGUUUGGUGCGCGAGUGUUGGAUAAUUGAUACCAGUGUAGAAGAGCGCCCUUGGCAGCGAAUCCUAACAUGAGGAUCACCCAUGU [5.W]” was tested, and the “apparent KD of MS2 coat protein” value (input ligand: arginine 13.2 mM) was 37.6 nM, the “apparent KD of MS2 coat protein” value [1] was 54.7 nM and the “apparent KD of MS2 coat protein” value [3] was 40.3 nM.

For “UAUCCACAUGAGGAUCACCCAUGUAGGGAAGGAGCGGUGAUUUCACCAGGUAGGUCGCCUUGCUGAGGGUUGCCGGUGGAAUCGU [Exclusion - Arginine A (Freestyle 33)]”, the “apparent KD of MS2 coat protein” value (input ligand: arginine 13.2 mM) was 12.5 nM, the “apparent KD of MS2 coat protein” value (input ligand: none) was 15.7 nM and the “apparent KD of MS2 coat protein” value [1] was 14.8 nM. The “apparent KD of MS2 coat protein” value [2] was 13.1 nM and the “apparent KD of MS2 coat protein” value [3] was 16.2 nM.

For “UCGACAAGAACAAUAAACAGCACUUGAGAAGGAGCGCGGAAAUCCGCAGGUAGGUCGCUCAUGUGUACAUGAGGAUCACCCAUGU [Inveonxeed]”, the “apparent KD of MS2 coat protein” value (input ligand: arginine 13.2 mM) was 32.6 nM, the “apparent KD of MS2 coat protein” value (input ligand: none) was 39.7 nM and the “apparent KD of MS2 coat protein” value [1] was 49.3 nM. The “apparent KD of MS2 coat protein” value [2] was 40.8 nM and the “apparent KD of MS2 coat protein” value [3] was 34.5 nM.

In the case of “AAUAUCAUGAGGAUCACCCAUGAAGAAGAUACCAGAGUGAUGAUCCUCCCUUGGCAGCUUAACGCUGAUUGAUUACAAUCAGCGA”, the “apparent KD of MS2 coat protein” value (input ligand: arginine 13.2 mM) is reported as 31.1 nM, the “apparent KD of MS2 coat protein” value (input ligand: none) is reported as 51.8 nM and the “apparent KD of MS2 coat protein” value [1] is reported as 128 nM. For the same sequence, the “apparent KD of MS2 coat protein” value [2] was 200 nM and the “apparent KD of MS2 coat protein” value [3] was 30.3 nM.
